Results: paper PMC8065144
“And” between values parts separate entries of the source, which are not always exact repeats. Equal values may be shown once.

Biological target: HA-tagged Glial Lazarillo (GLaz-HA) (Drosophila)
Assay: affinity purification on anti-HA beads and Western blot (bands of oligomers); GLaz-HA from larval brain extract concentrated on anti-HA beads, detected with anti-HA; the tetramers and dimers are destabilized into monomers by heat treatment or the reducing agent DTT

stoichiometry N: 4 and 2
Substance: HA-tagged Glial Lazarillo (GLaz-HA) (ligand)
